Measured values: paper PMC6212441, “Direct visualization of DNA baton pass between replication factors bound to PCNA” (Scientific Reports, 2018)

Tests used:
[1] = target: T1, P. furiosus DNA ligase (Lig) (Pyrococcus furiosus, UniProt P56709 1-561); assay: negative-stain electron microscopy, single particle analysis; wild type FEN, Lig, PCNA and nonligatable nicked DNA (Substrate-B) mixed in 20 mM MES pH 6.5, 50 mM NaCl, 0.1 mM ATP, 5 mM MgCl2, 50 °C 10 min; complex isolated on Superdex 200 without crosslinking; 2% uranyl acetate stain; two classes, maps at 16 Å and 20 Å with crystal structures fitted; conditions: both partners purified
T1 construct: DNA ligase (Lig) of Pyrococcus furiosus, with DBD, AdD and OBD domains and the PIP-box motif 103-QKSFF-107
T1 sequence: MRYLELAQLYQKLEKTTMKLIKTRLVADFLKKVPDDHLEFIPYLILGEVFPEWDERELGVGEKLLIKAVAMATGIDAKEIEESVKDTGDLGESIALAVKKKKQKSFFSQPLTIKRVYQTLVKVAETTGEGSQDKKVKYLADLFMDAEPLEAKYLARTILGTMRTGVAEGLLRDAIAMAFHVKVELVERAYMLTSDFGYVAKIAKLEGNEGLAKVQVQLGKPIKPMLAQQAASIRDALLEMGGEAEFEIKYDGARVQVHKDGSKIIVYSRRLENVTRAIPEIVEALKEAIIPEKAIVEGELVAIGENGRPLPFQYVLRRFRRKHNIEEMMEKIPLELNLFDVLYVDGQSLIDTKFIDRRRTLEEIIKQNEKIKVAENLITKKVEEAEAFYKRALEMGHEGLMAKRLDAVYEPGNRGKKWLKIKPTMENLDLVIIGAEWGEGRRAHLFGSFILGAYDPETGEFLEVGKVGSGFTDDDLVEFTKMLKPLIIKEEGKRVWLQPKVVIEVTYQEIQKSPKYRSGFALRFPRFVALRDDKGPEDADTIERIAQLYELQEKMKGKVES

[2] = target: T2, P. furiosus proliferating cell nuclear antigen (PCNA) (Pyrococcus furiosus), O73947; assay: negative-stain electron microscopy, single particle analysis; FEN (D175A), PCNA and double flap DNA (Substrate-A) mixed in 50 mM Tris-HCl pH 8.0, 50 mM NaCl, 37 °C 10 min; complex isolated on Superdex 200 without crosslinking; 2% uranyl acetate stain; map at 19 Å with crystal structures fitted; conditions: remark: other sources report otherwise
T2 chain: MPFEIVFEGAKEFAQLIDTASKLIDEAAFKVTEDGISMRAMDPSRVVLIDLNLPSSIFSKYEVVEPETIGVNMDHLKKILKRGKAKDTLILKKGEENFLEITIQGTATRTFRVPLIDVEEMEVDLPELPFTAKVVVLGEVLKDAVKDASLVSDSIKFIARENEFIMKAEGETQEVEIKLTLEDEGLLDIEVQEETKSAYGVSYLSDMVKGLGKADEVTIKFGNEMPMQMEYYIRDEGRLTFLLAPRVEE

binding result [1]: binds
stoichiometry N [2]: 3
B1: P. furiosus proliferating cell nuclear antigen (PCNA) (natural protein, Pyrococcus furiosus)
chain: MPFEIVFEGAKEFAQLIDTASKLIDEAAFKVTEDGISMRAMDPSRVVLIDLNLPSSIFSKYEVVEPETIGVNMDHLKKILKRGKAKDTLILKKGEENFLEITIQGTATRTFRVPLIDVEEMEVDLPELPFTAKVVVLGEVLKDAVKDASLVSDSIKFIARENEFIMKAEGETQEVEIKLTLEDEGLLDIEVQEETKSAYGVSYLSDMVKGLGKADEVTIKFGNEMPMQMEYYIRDEGRLTFLLAPRVEE
notes: proliferating cell nuclear antigen (PCNA) of Pyrococcus furiosus, forms a homotrimeric ring; also called PCNA clamp; PCNA ring
